From article PMC9922763

Molecular target: synthetic IAPP, used as monomer and as sonicated preformed fibrils (seeds) (UniProt P10997)

Chain of synthetic IAPP, used as monomer and as sonicated preformed fibrils (seeds) (from UniProt P10997 34-70) (peptide) (P10997 34-70): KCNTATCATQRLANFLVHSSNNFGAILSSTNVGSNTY

- lag phase of ThT fibril formation of 2.5 µM monomeric IAPP after adding IAPP seeds corresponding to 100 nM monomeric peptide (240 min without seeds); PBS pH 7.4, 37°C: 20 min
Substance: synthetic IAPP, used as monomer and as sonicated preformed fibrils (seeds) (from UniProt P10997 34-70) (peptide)
